Test results reported in paper PMC4191604 (Journal of Medicinal Chemistry, 2014).

Legend:
Experiment in all cases: SPR
[1] = molecular target: T1, GBP1 mutant R227E/K228E (human, UniProt P32455 1-592, R227E | K228E)
T1 sequence (looked up): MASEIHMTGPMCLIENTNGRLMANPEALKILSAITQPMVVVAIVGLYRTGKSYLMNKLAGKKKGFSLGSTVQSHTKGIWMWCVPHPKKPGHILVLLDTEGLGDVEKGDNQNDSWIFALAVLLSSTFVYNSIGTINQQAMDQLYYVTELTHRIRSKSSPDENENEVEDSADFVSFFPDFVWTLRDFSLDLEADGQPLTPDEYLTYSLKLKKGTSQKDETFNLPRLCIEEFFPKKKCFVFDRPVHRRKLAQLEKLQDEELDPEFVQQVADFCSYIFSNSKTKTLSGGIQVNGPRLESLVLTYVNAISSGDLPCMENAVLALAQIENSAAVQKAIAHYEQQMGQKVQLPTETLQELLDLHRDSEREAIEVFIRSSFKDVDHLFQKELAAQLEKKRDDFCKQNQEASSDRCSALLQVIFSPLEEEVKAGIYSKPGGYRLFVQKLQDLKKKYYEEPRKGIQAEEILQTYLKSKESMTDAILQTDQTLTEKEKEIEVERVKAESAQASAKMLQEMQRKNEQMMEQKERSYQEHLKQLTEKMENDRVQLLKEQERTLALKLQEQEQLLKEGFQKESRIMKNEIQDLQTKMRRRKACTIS

[2] = molecular target: T2, GBP1 mutant Q72A (human, UniProt P32455 1-592, Q72A)
T2 sequence (looked up): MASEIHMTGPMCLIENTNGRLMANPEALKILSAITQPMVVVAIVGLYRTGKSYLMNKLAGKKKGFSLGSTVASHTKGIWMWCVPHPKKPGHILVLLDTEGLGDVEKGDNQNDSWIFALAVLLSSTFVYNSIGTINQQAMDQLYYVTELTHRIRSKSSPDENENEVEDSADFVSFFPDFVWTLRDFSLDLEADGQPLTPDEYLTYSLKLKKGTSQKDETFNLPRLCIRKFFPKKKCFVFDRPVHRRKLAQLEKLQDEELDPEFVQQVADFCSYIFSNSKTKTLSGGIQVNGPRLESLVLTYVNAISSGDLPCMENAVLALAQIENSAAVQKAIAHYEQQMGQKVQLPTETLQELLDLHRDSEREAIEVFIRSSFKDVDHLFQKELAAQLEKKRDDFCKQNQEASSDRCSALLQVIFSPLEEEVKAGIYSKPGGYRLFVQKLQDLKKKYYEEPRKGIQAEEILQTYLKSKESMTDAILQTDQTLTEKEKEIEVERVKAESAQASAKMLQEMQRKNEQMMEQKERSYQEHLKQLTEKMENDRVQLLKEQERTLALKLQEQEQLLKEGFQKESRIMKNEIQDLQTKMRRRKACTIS

[3] = molecular target: T3, GBP1 mutant R48A (human, UniProt P32455 1-592, R48A)
T3 sequence (looked up): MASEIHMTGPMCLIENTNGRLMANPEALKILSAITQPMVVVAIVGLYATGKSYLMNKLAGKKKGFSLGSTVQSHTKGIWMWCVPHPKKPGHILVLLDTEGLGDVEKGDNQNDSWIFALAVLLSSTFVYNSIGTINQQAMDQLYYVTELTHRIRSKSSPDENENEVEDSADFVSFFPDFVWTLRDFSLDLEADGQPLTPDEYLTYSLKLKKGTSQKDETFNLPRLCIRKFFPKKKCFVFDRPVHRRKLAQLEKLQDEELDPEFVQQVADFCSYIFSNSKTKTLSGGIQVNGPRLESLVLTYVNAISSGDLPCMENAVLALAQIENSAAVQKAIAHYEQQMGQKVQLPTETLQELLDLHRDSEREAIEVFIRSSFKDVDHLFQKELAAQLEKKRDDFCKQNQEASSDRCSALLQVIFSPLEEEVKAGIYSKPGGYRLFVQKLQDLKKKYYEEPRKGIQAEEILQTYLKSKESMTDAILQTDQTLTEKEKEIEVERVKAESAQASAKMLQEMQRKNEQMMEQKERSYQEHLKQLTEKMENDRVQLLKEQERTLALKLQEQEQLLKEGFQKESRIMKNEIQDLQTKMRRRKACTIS

[4] = molecular target: T4, GBP1 mutant D103N (human, UniProt P32455 1-592, D103N)
T4 sequence (looked up): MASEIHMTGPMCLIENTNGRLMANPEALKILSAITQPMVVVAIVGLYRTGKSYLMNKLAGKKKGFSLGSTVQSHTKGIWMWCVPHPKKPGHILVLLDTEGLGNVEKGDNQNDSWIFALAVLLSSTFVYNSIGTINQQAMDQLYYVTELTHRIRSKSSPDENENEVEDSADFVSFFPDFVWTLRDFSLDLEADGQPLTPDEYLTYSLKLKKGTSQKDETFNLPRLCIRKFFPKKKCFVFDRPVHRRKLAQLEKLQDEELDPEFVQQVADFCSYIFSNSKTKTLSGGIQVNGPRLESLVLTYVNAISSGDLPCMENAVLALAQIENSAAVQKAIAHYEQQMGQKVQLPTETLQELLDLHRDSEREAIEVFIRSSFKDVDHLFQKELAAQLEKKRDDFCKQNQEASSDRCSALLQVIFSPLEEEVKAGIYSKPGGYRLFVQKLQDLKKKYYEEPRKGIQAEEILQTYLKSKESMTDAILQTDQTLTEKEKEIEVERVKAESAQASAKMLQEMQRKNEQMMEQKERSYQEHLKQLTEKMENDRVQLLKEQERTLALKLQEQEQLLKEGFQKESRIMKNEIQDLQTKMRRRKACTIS

B1: PIM1 (recombinant) (enzyme)
chain: not shown
- Kd [1]: > 10000 nM
- Kd [2]: 161 ± 17 nM
- Kd [3]: 21 ± 0.1 nM
- Kd [4]: 15 ± 0.1 nM
